According to patent publication US7108990B2, “Chemokine receptor” (ChemoCentryx, Inc., priority 1999, dated 2006):
“Also recorded” adds a separate entry of the source. Where two headings read alike, the source gives them in different places.

T1: CCX CKR (Homo sapiens, UniProt Q9NPB9)
T1 construct: Full length CCX CKR expression constructs were made in pIRESpuro expression vector; expressed in transfected cells
T1 sequence (Q9NPB9 1-350): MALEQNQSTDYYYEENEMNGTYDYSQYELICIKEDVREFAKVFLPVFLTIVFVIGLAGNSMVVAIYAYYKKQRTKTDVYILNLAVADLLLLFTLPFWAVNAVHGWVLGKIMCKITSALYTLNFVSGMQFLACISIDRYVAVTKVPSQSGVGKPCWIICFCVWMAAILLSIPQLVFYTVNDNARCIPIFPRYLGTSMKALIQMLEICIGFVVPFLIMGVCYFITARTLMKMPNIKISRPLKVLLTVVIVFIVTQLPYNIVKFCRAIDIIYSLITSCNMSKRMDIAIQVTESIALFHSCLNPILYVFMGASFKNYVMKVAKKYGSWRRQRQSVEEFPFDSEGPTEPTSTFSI

B1: mMIP-1gamma: murine chemokine MIP-1γ (protein)
chain: QITHATETKEVQSSLKAQQGLEIEMFHMGFQDSSDCCLSYNSRIQCSRFIGYFPTSGGCTRPGIIFISKRGFQVCANPSDRRVQRCIERLEQNSQPRTYKQ
B2: TECK: thymus expressed chemokine, recombinant (protein)
chain: QGVFEDCCLAYHYPIGWAVLRRAWTYRIQEVSGSCNLPAAIFYLPKRHRKVCGNPKSREVQRAMKLLDARNKVFAKLHHNTQTFQAGPHAVKKLSSGNSKLSSSKFSNPISSSKRNVSLLISANSGL
B3: vMIP-II: virally-encoded chemokine from the human Kaposi's sarcoma herpesvirus HHV8 (protein)
chain: LGASWHRPDKCCLGYQKRPLPQVLLSSWYPTSQLCSKPGVIFLTKRGRQVCADKSKDWVKKLMQQLPVTAR
B4: murine CTACK: murine chemokine CTACK, also referred to as CCL27, ALP, ILC, and ESkine (protein)
chain: LPLPSSTSCCTQLYRQPLPSRLLRRIVHMELQEADGDCHLQAVVLHLARRSVCVHPQNRSLARWLERQGKRLQGTVPSLNLVLQKKMYSHPQQQN

What was measured:
CCX CKR [1] = target: T1, CCX CKR; experiment: Adhesion of HEK293-CCX CKR cells to immobilized stalkokines and competition by soluble chemokines; type: cell-based; conditions: soluble recombinant chemokine 5–10 ug/ml
Source text: “Stalkokine” technology was used to identify the chemokines bound by the CCX CKR. Briefly, immobilized native chemokines alone are incapable of capturing cells bearing cognate receptors (Imai et al., 1997, Cell 91:521). We have developed non-native chemokine structures, stalkokines, comprising chemokine moieties engineered as N-terminal attachments to extended modified mucins (Bazan et al., 1997, Nature 385:640). In one embodiment, stalkokines, harvested in the supernatants of HEK293 cells after transient transfection, are anchored to solid substrates via antibodies against carrier domains (e.g. poly-His epitopes) engineered to the carboxyl terminus, leaving the chemokine domain free to interact with candidate orphan receptors.
To determine ligand binding to CCX CKR, HEK293-CCX CKR cells were used to interrogate chemokine ‘stalkokines’ (SK), i.e., molecules in which discrete chemokine domains were engineered to be tethered to the end of an extended stalk structure. Stalkokines were interrogated using 8-well chamber slides coated first with anti-His anchoring antibody (10 ug/ml in PBS overnight at RT), which were washed and ‘blocked’ (2% FBS/0.5% BSA in PBS); treated with 250 ul of HEK293 cell stalkokine supernatants (1 hr at 37 C), and incubated with 500,000 HEK293-CCX CKR transfectants (1.5 hrs at RT). Inhibition of adhesion by competition with soluble chemokines was done by incubating cells with 5–10 ug/ml of recombinant chemokines. In all cases, nonadherent cells were removed by washing in PBS; remaining adherent cells were fixed with 1% glutaraldehyde, photoimaged and counted. As a primary screen this adhesion would reveal putative receptor-ligand interactions.

CCX CKR [2] = target: T1, CCX CKR; experiment: Small molecule screen: inhibition of 125I-ELC binding to HEK293 cells stably expressing CCX CKR; conditions: for effect on binding between ELC and CCX CKR: 125I-ELC ~25–100 pM, compounds 1–5 μg/mL, HEK293-CCX CKR cells, 3 hours at 4° C.; for type of modulator of CCX CKR function: Table 1, exemplary small molecule modulators of CCX CKR binding to ELC
Experimental: Source plates of chemical libraries were obtained from commercial vendors and contained individual compounds at 5 mg/mL in DMSO, or in some instances, at 1 mg/mL. From these, multiple compound plates containing 10 compounds in each well were made, and these were diluted in 20% DMSO to a concentration of 50 μg/mL (10 μg/mL for those beginning at 1 mg/mL). An aliquot of 20 μL of each mixture was put into the test plates, which were stored frozen until use.
HEK293 cells stably expressing the M1 flag epitope-tagged CCX CKR (described in Example 3, supra) were cultured in DMEM-10% FBS, and harvested when the concentration was between 0.5–1.0×10^6 cells/mL. The cells were centrifuged and resuspended in assay buffer (20 mM HEPES, 80 mM NaCl, 1 mM CaCl2, 5 mM MgCl2, and with 0.2% bovine serum albumin, pH 7.4) to a concentration of 5.6×10^6 cells/mL.
Using a Multi-Probe automated system, 0.09 mL of cells was added to each well of the assay test plates containing the compounds, followed by 0.09 mL of ^125I-MIPβ3/ELC (from Amersham Pharmacia Biotech) diluted in assay buffer (final concentration ˜25–100 pM, with ˜50,000 cpm per well). The final concentration of the compounds was 1–5 μg/mL each. The plates were sealed and incubated for approximately 3 hours at 4° C. on a shaker platform. The assay plates were harvested using Packard GP/B filter plates, pre-soaked in PEI solution, on the vacuum harvest apparatus. Scintillation fluid (50 μL) was added to each of the wells, the plates were sealed and counted in a Top Count scintillation counter. Control wells contained either diluent only (for total counts) or excess ELC (1 μg/mL, for non-specific binding) and were used to calculate the percent of total inhibition of ELC binding for each set of compounds.

CCX CKR [3] = target: T1, CCX CKR; experiment: Ligand induced internalization of Flag-CCX CKR in 293 cells (FACS); type: cell-based; conditions: 100 nM chemokine, 37° C., 15 or 45 minutes, 293 F-CCR10 cells
Experimental: 293 cells transfected with the Flag-CCX CKR fusion plasmid (i.e., “293 F-CCR10 cells;” see Example 3) were incubated at 37° C. with varying concentrations of chemokines (ELC, SLC, TECK, murine CTACK and MCP-4) for 15 or 45 minutes. Following incubation, the cells were washed and fixed with 3% paraformaldehyde for 15 minutes on ice. The cells were stained with anti-Flag M1 antibody, followed by a PE-conjugated anti-mouse secondary antibody. FACS analysis were then carried out to determine surface expression of the receptor.
Results: A reduction in antibody binding in the presence of ligand is an indication of ligand-induced internalization of the receptor.

CCX CKR [4] = target: T1, CCX CKR; experiment: Ligand binding fingerprint: cold chemokines competing against 125I-ELC on CCX CKR stable transfectants; conditions: cold competitor at 200 nM; human and murine chemokines
Source text: In order to rapidly and thoroughly define a given chemokine receptor's ligand binding fingerprint, we have established an approach to comprehensively profile chemokine receptors using a large array of purified chemokines and chemokine variants. We used this approach to confirm independently the interaction of ELC and other chemokines with CCX CKR. Employing radioligand binding of ^125-labeled-ELC or ^125-TECK to CCX CKR stable transfectants, chemokine specificity for the new receptor was determined.
(§1) Binding analysis was carried out using efficiency-maximized radioligand binding utilizing filtration protocols designated “Displace Max” (Dairaghi et al., 1999, J. Biol. Chem. 274:21569). In these assays, DisplaceMax employed the simultaneous interrogation of CCX CKR transfectants by >80 distinct purified chemokines in the ability to displace radiolabeled ELC or TECK, using the protocol described (Dairaghi et al., 1999, J. Biol. Chem. 274:21569).

CCX CKR [5] = target: T1, CCX CKR; experiment: Radioligand binding competition (DisplaceMax) to CCX CKR stable transfectants with Scatchard transformation
Source text: In one embodiment, binding is detected as described by Dairaghi et al., 1997, J. Biol. Chem. 272:28206–209 (incorporated by reference in its entirety for all purposes) substituting CCX CKR transfectants for the CCR3 transfectants). In one embodiment, binding is detected using the filter based technique described by Dairaghi et al., 1999, J. Biol. Chem. 274:2156 (incorporated by reference in its entirety for all purposes), e.g., as shown in FIG. 4. Briefly, this technology employs expanded, efficiency-maximized radioligand binding utilizing filtration protocols. In these assays, 1×10^5 CCXCKR-293 HEK cells are incubated with ^125I-labeled ELC (MIP3beta) (final concentration of ˜0.05 nM) in the presence of unlabeled chemokine for 3 h at 4° C. in 25 mM HEPES, 140 mM NaCl, 1 mM CaCl2, 5 mM MgCl2, and 0.2% bovine serum albumin, adjusted to pH 7.1. Reactions were aspirated onto PEI-treated GF/B glass filters using a cell harvester (Packard). Filters are washed twice (25 mM HEPES, 500 mM NaCl, 1 mM CaCl2 5 mM MgCl2, adjusted to pH 7.1) and scintillant (e.g., MicroScint 20; 50 μl) is added to dried filters and counted (e.g., using a Packard Topcount scintillation counter). The competition dose-response curves is analyzed by standard methods to determine IC50 values (e.g., using GraphPad Prism software (San Diego, Calif.)). Additionally, a Scatchard transformation can be used to estimate the receptor sites per cell (e.g., using WaveMetrics Igor software (Lake Oswego, Oreg.)).
as §1
The binding interactions identified in the primary screen were examined quantitatively by extensive radioligand binding competition to CCX CKR stable transfectants and Scatchard transformation of the displacement data (FIG. 4B). […] In each case, the murine versions of these chemokines also bound, and with even greater affinity; the apparent Kd's are listed in FIG. 4B. […] In similar experiments, murine CTACK bound the receptor with a Kd of ˜9 nM (not shown). CTACK is also referred to as CCL27, ALP, ILC, and ESkine.

CCX CKR [6] = target: T1, CCX CKR; experiment: Homologous competition binding assay with radiolabeled chemokine on HEK293-CCX CKR cells; conditions: HEK293-CCX CKR cells versus wildtype HEK293 cells
Source text: Furthermore ELC-SK mediated adhesion was abolished in the presence of soluble native ELC as a competitor (FIG. 3A, top row). […] Moreover, radiolabeled ELC was used in a traditional homologous competition assay in the presence of increasing concentrations of unlabeled ELC. […] Taken together, the stalkokine-based adhesion and radiolabeled ligand binding/homologous competition assays indicate that CCX CKR is a new chemokine receptor that bound a novel compliment of chemokines.

Molecule | effect on binding between ELC and CCX CKR (CCX CKR [2]) | type of modulator of CCX CKR function (CCX CKR [2]) | internalization of CCX CKR (CCX CKR [3]) | competition with 125I-labeled ELC binding to CCX CKR (fingerprint) (CCX CKR [4]) | affinity of binding to CCX CKR, in words (CCX CKR [5]) | further results
MCP-3: chemokine, representative of many non-competing chemokines |  |  |  |  |  | effect of soluble chemokine on ELC-SK mediated adhesion of HEK293-CCX CKR cells (CCX CKR [1]): no diminution in adhesion
CC1CCCCN1CCCN(Cc1ccc(OCc2ccccc2)cc1)C(=O)Nc1ccc(Cl)c(Cl)c1 (stereo not shown) [Compound I] | inhibit binding | Compound I(antagonist) |  |  |  | 
CCC(c1nc2ccccc2c(=O)n1C)N(Cc1ccco1)C(=O)Nc1cccc(C(F)(F)F)c1 (stereo not shown) [Compound III] | enhance binding | Compound III(agonist) |  |  |  | 
MCP-4: chemokine, did not cause receptor internalization |  |  | did not cause internalization |  |  | 
BLC: the CXC chemokine BLC |  |  |  | potential lower affinity | lower affinity; also recorded: of lesser affinity, also bound well | 
CC1CCCCN1CCCN(Cc1ccc(OCc2ccccc2)cc1)C(=O)NCC1CCC2CCCC(C2)C1 (stereo not shown) [Compound II] | inhibit binding | Compound II(antagonist) |  |  |  | 
B1 |  |  |  | moderately | lower affinity | 
B2 |  |  | Internalization of the receptor was observed | bound well | high affinity | effect of soluble chemokine on ELC-SK mediated adhesion of HEK293-CCX CKR cells (CCX CKR [1]): significant reduction; also recorded: ablation of adhesion; binding in homologous competition of radiolabeled with unlabeled chemokine (CCX CKR [6]): Nearly identical results
B3 |  |  |  | potential lower affinity | moderate to low affinity | affinity of binding to CCX CKR, in words (CCX CKR [5]; listed as vMIPII): lower affinity
B4 |  |  | Internalization of the receptor was observed |  | high affinity | 
